B1: H0932/L0395 (antibody, name in Kabat numbering, V domains shown)
VH: QVQLVESGGGLVQPGGSLRLSCAASGFTFSDYYLSWVRQAPGKGLEWVGLIRNKDNHHTPEYSASVKGRFTISRDDSKNSLYLTMSDLKTEDTAVYYCARENHRYDVELAYWGQGTLVTVSS
VL: DIQMTQSPSSLSASVGDRVTITCRASEIIYSYLAWYQQKPGKAPKLLIYKAKTHADGVPSRFSGSGSGTDFTFTISSLQPEDIATYYCKHHFGFPRTFGQGTKVEIKR
B2: H1022/L0442 (antibody, human IgG1, kappa, name in Kabat numbering, V domains shown)
VH: QVQLVESGGGLVQPGGSLRLSCAASGFTFSDYYLSWVRQAPGKGLEWVGLIRNKDNHHHPEYSASVKGRFTISRDDSKNSLYLTMSDLKTEDTAVYYCARENHRYDVELAYWGQGTLVTVSS
VL: DIQMTQSPSSLSASVGDRVTITCRASEIIYEYLAWYQQKPGKAPKLLIYKAKTHADGVPSRFSGSGSGTDFTFTISSLQPEDIATYYCKHHFGFPRTFGQGTKVEIKR
notes: L442 = L395 + S31E
B3: H1046/L0442 (antibody, human IgG1, kappa, name in Kabat numbering, V domains shown)
VH: QVQLVESGGGLVQPGGSLRLSCAASGFTFSEYYLSWVRQAPGKGLEWVGLIRNKDNYHHPEYSASVKGRFTISRDDSKNSLYLTMSDLKTEDTAVYYCARENHRYDVELAYWGQGTLVTVSS
VL: DIQMTQSPSSLSASVGDRVTITCRASEIIYEYLAWYQQKPGKAPKLLIYKAKTHADGVPSRFSGSGSGTDFTFTISSLQPEDIATYYCKHHFGFPRTFGQGTKVEIKR
notes: L442 = L395 + S31E
B4: H1029/L0395 (antibody, human IgG1, kappa, name in Kabat numbering, V domains shown)
VH: QVQLVESGGGLVQPGGSLRLSCAASGFTFDKYYLSWVRQAPGKGLEWVGLIRNKDNHHTPEYSASVKGRFTISRDDSKNSLYLTMSDLKTEDTAVYYCARENHRYDVELAYWGQGTLVTVSS
VL: DIQMTQSPSSLSASVGDRVTITCRASEIIYSYLAWYQQKPGKAPKLLIYKAKTHADGVPSRFSGSGSGTDFTFTISSLQPEDIATYYCKHHFGFPRTFGQGTKVEIKR
B5: H0932/L0442 (antibody, human IgG1, kappa, name in Kabat numbering, V domains shown)
VH: QVQLVESGGGLVQPGGSLRLSCAASGFTFSDYYLSWVRQAPGKGLEWVGLIRNKDNHHTPEYSASVKGRFTISRDDSKNSLYLTMSDLKTEDTAVYYCARENHRYDVELAYWGQGTLVTVSS
VL: DIQMTQSPSSLSASVGDRVTITCRASEIIYEYLAWYQQKPGKAPKLLIYKAKTHADGVPSRFSGSGSGTDFTFTISSLQPEDIATYYCKHHFGFPRTFGQGTKVEIKR
B6: H1031/L0442 (antibody, human IgG1, kappa, name in Kabat numbering, V domains shown)
VH: QVQLVESGGGLVQPGGSLRLSCAASGFTFDKYYLSWVRQAPGKGLEWVGLIRNKDNHHHPEYSASVKGRFTISRDDSKNSLYLTMSDLKTEDTAVYYCARENHRYDVELAYWGQGTLVTVSS
VL: DIQMTQSPSSLSASVGDRVTITCRASEIIYEYLAWYQQKPGKAPKLLIYKAKTHADGVPSRFSGSGSGTDFTFTISSLQPEDIATYYCKHHFGFPRTFGQGTKVEIKR
notes: L442 = L395 + S31E
B7: H1031/L0395 (antibody, human IgG1, kappa, name in Kabat numbering, V domains shown)
VH: QVQLVESGGGLVQPGGSLRLSCAASGFTFDKYYLSWVRQAPGKGLEWVGLIRNKDNHHHPEYSASVKGRFTISRDDSKNSLYLTMSDLKTEDTAVYYCARENHRYDVELAYWGQGTLVTVSS
VL: DIQMTQSPSSLSASVGDRVTITCRASEIIYSYLAWYQQKPGKAPKLLIYKAKTHADGVPSRFSGSGSGTDFTFTISSLQPEDIATYYCKHHFGFPRTFGQGTKVEIKR
B8: H1028/L0395 (antibody, human IgG1, kappa, name in Kabat numbering, V domains shown)
VH: QVQLVESGGGLVQPGGSLRLSCAASGFTFSDYYLSWVRQAPGKGLEWVGLIRNKDNYHHPEYSASVKGRFTISRDDSKNSLYLTMSDLKTEDTAVYYCARENHRYDVELAYWGQGTLVTVSS
VL: DIQMTQSPSSLSASVGDRVTITCRASEIIYSYLAWYQQKPGKAPKLLIYKAKTHADGVPSRFSGSGSGTDFTFTISSLQPEDIATYYCKHHFGFPRTFGQGTKVEIKR
B9: H1032/L0442 (antibody, human IgG1, kappa, name in Kabat numbering, V domains shown)
VH: QVQLVESGGGLVQPGGSLRLSCAASGFTFDKYYLSWVRQAPGKGLEWVGLIRNKDNGYHPEYSASVKGRFTISRDDSKNSLYLTMSDLKTEDTAVYYCARENHRYDVELAYWGQGTLVTVSS
VL: DIQMTQSPSSLSASVGDRVTITCRASEIIYEYLAWYQQKPGKAPKLLIYKAKTHADGVPSRFSGSGSGTDFTFTISSLQPEDIATYYCKHHFGFPRTFGQGTKVEIKR
notes: L442 = L395 + S31E
B10: H1022/L0395 (antibody, human IgG1, kappa, name in Kabat numbering, V domains shown)
VH: QVQLVESGGGLVQPGGSLRLSCAASGFTFSDYYLSWVRQAPGKGLEWVGLIRNKDNHHHPEYSASVKGRFTISRDDSKNSLYLTMSDLKTEDTAVYYCARENHRYDVELAYWGQGTLVTVSS
VL: DIQMTQSPSSLSASVGDRVTITCRASEIIYSYLAWYQQKPGKAPKLLIYKAKTHADGVPSRFSGSGSGTDFTFTISSLQPEDIATYYCKHHFGFPRTFGQGTKVEIKR
B11: H1000/L0442 (antibody, human IgG1, kappa, name in Kabat numbering, V domains shown)
VH: QVQLVESGGGLVQPGGSLRLSCAASGFTFSEYYLSWVRQAPGKGLEWVGLIRNKDNHHTPEYSASVKGRFTISRDDSKNSLYLTMSDLKTEDTAVYYCARENHRYDVELAYWGQGTLVTVSS
VL: DIQMTQSPSSLSASVGDRVTITCRASEIIYEYLAWYQQKPGKAPKLLIYKAKTHADGVPSRFSGSGSGTDFTFTISSLQPEDIATYYCKHHFGFPRTFGQGTKVEIKR
notes: L442 = L395 + S31E
B12: H1048/L0395 (antibody, human IgG1, kappa, name in Kabat numbering, V domains shown)
VH: QVQLVESGGGLVQPGGSLRLSCAASGFTFSEYYLSWVRQAPGKGLEWVGLIRNKDNGYTPEYSASVKGRFTISRDDSKNSLYLTMSDLKTEDTAVYYCARENHRYDVELAYWGQGTLVTVSS
VL: DIQMTQSPSSLSASVGDRVTITCRASEIIYSYLAWYQQKPGKAPKLLIYKAKTHADGVPSRFSGSGSGTDFTFTISSLQPEDIATYYCKHHFGFPRTFGQGTKVEIKR
B13: H1004/L0442 (antibody, human IgG1, kappa, name in Kabat numbering, V domains shown)
VH: QVQLVESGGGLVQPGGSLRLSCAASGFTFSDYYLSWVRQAPGKGLEWVGLIRNKDNGYTPEYSASVKGRFTISRDDSKNSLYLTMSDLKTEDTAVYYCARENHRYDVELAYWGQGTLVTVSS
VL: DIQMTQSPSSLSASVGDRVTITCRASEIIYEYLAWYQQKPGKAPKLLIYKAKTHADGVPSRFSGSGSGTDFTFTISSLQPEDIATYYCKHHFGFPRTFGQGTKVEIKR
notes: L442 = L395 + S31E
B14: H1047/L0442 (antibody, human IgG1, kappa, name in Kabat numbering, V domains shown)
VH: QVQLVESGGGLVQPGGSLRLSCAASGFTFDKYYLSWVRQAPGKGLEWVGLIRNKDNGYTPEYSASVKGRFTISRDDSKNSLYLTMSDLKTEDTAVYYCARENHRYDVELAYWGQGTLVTVSS
VL: DIQMTQSPSSLSASVGDRVTITCRASEIIYEYLAWYQQKPGKAPKLLIYKAKTHADGVPSRFSGSGSGTDFTFTISSLQPEDIATYYCKHHFGFPRTFGQGTKVEIKR
notes: L442 = L395 + S31E
B15: H1000/L0395 (antibody, human IgG1, kappa, name in Kabat numbering, V domains shown)
VH: QVQLVESGGGLVQPGGSLRLSCAASGFTFSEYYLSWVRQAPGKGLEWVGLIRNKDNHHTPEYSASVKGRFTISRDDSKNSLYLTMSDLKTEDTAVYYCARENHRYDVELAYWGQGTLVTVSS
VL: DIQMTQSPSSLSASVGDRVTITCRASEIIYSYLAWYQQKPGKAPKLLIYKAKTHADGVPSRFSGSGSGTDFTFTISSLQPEDIATYYCKHHFGFPRTFGQGTKVEIKR
B16: H1028/L0442 (antibody, human IgG1, kappa, name in Kabat numbering, V domains shown)
VH: QVQLVESGGGLVQPGGSLRLSCAASGFTFSDYYLSWVRQAPGKGLEWVGLIRNKDNYHHPEYSASVKGRFTISRDDSKNSLYLTMSDLKTEDTAVYYCARENHRYDVELAYWGQGTLVTVSS
VL: DIQMTQSPSSLSASVGDRVTITCRASEIIYEYLAWYQQKPGKAPKLLIYKAKTHADGVPSRFSGSGSGTDFTFTISSLQPEDIATYYCKHHFGFPRTFGQGTKVEIKR
notes: L442 = L395 + S31E
B17: H1048/L0442 (antibody, human IgG1, kappa, name in Kabat numbering, V domains shown)
VH: QVQLVESGGGLVQPGGSLRLSCAASGFTFSEYYLSWVRQAPGKGLEWVGLIRNKDNGYTPEYSASVKGRFTISRDDSKNSLYLTMSDLKTEDTAVYYCARENHRYDVELAYWGQGTLVTVSS
VL: DIQMTQSPSSLSASVGDRVTITCRASEIIYEYLAWYQQKPGKAPKLLIYKAKTHADGVPSRFSGSGSGTDFTFTISSLQPEDIATYYCKHHFGFPRTFGQGTKVEIKR
notes: L442 = L395 + S31E
B18: H1029/L0442 (antibody, human IgG1, kappa, name in Kabat numbering, V domains shown)
VH: QVQLVESGGGLVQPGGSLRLSCAASGFTFDKYYLSWVRQAPGKGLEWVGLIRNKDNHHTPEYSASVKGRFTISRDDSKNSLYLTMSDLKTEDTAVYYCARENHRYDVELAYWGQGTLVTVSS
VL: DIQMTQSPSSLSASVGDRVTITCRASEIIYEYLAWYQQKPGKAPKLLIYKAKTHADGVPSRFSGSGSGTDFTFTISSLQPEDIATYYCKHHFGFPRTFGQGTKVEIKR
notes: L442 = L395 + S31E
B19: H1032/L0395 (antibody, human IgG1, kappa, name in Kabat numbering, V domains shown)
VH: QVQLVESGGGLVQPGGSLRLSCAASGFTFDKYYLSWVRQAPGKGLEWVGLIRNKDNGYHPEYSASVKGRFTISRDDSKNSLYLTMSDLKTEDTAVYYCARENHRYDVELAYWGQGTLVTVSS
VL: DIQMTQSPSSLSASVGDRVTITCRASEIIYSYLAWYQQKPGKAPKLLIYKAKTHADGVPSRFSGSGSGTDFTFTISSLQPEDIATYYCKHHFGFPRTFGQGTKVEIKR
B20: H1009/L0442 (antibody, human IgG1, kappa, name in Kabat numbering, V domains shown)
VH: QVQLVESGGGLVQPGGSLRLSCAASGFTFSDYYLSWVRQAPGKGLEWVGLIRNKDNYHTPEYSASVKGRFTISRDDSKNSLYLTMSDLKTEDTAVYYCARENHRYDVELAYWGQGTLVTVSS
VL: DIQMTQSPSSLSASVGDRVTITCRASEIIYEYLAWYQQKPGKAPKLLIYKAKTHADGVPSRFSGSGSGTDFTFTISSLQPEDIATYYCKHHFGFPRTFGQGTKVEIKR
notes: L442 = L395 + S31E

Legend:
[1] = target: T1, human IL-8 (human, UniProt P10145 23-99, limits assumed); assay: SPR Biacore T200, Protein A/G capture, pH 7.4, 40C;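 also: antibodies captured via Protein A/G, which was amine-coupled to a CM4 sensor chip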
T1 construct: also called hIL-8; hIL8
T1 sequence (P10145 23-99 limits assumed): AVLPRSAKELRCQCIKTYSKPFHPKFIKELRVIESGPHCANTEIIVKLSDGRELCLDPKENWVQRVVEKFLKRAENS
Procedure: (§1) An appropriate amount of Protein A/G (PIERCE) was immobilized onto the Sensor chip CM4 (GE Healthcare) by the amine coupling method and the antibodies of interest were captured. […] To regenerate the sensor chip, 25 mM NaOH and 10 mM glycine-HCl (pH 1.5) were used. […] The BIACORE T200 Evaluation Software (GE Healthcare) was used to calculate each parameter.

[2] = target: T1, human IL-8; assay: SPR Biacore T200, Protein A/G capture, pH 5.8, 37C;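 also: antibodies captured by Protein A/G amine-coupled onto a CM4 sensor chip, with kinetic parameters derived using Biacore T200 Evaluation Software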
Procedure: as §1

Binder	Kd [1]	Kd [2]	koff [2]
B1	0.16 nM	–	–
B2	0.36 nM	180 nM	0.02 s⁻¹
B3	0.23 nM	–	–
B4	0.086 nM	55 nM	0.008 s⁻¹
B5	–	79 nM	–
B6	–	89 nM	–
B7	–	99 nM	–
B8	0.18 nM	210 nM	–
B9	0.078 nM	43 nM	0.0059 s⁻¹
B10	0.27 nM	290 nM	12 s⁻¹
B11	0.2 nM	71 nM	0.017 s⁻¹
B12	–	90 nM	–
B13	0.22 nM	77 nM	0.02 s⁻¹
B14	–	47 nM	–
B15	0.14 nM	89 nM	0.02 s⁻¹
B16	0.24 nM	140 nM	0.13 s⁻¹
B17	–	67 nM	–
B18	0.14 nM	48 nM	0.0085 s⁻¹
B19	0.042 nM	50 nM	0.0041 s⁻¹
B20	0.11 nM	63 nM	0.006 s⁻¹
